Assay results as given in US20110086338A1.

What was measured:
[1] = target: T7-bio: coliphage T7 major capsid protein gp10A fused to the 15-amino acid biotinylation peptide, biotinylated in vivo by the host BLP (Enterobacteria phage T7); assay: TEM of phage adsorbed to carrier E. coli cells, streptavidin-coated QDs in excess
[2] = target: T7-bio: coliphage T7 major capsid protein gp10A fused to the 15-amino acid biotinylation peptide, biotinylated in vivo by the host BLP (Enterobacteria phage T7); assay: flow cytometry of carrier E. coli cells with phage at MOI 5 and streptavidin-QDs

T7-bio: coliphage T7 major capsid protein gp10A fused to the 15-amino acid biotinylation peptide, biotinylated in vivo by the host BLP (Enterobacteria phage T7), sequence (P19727 1-349, tags or fused parts left off): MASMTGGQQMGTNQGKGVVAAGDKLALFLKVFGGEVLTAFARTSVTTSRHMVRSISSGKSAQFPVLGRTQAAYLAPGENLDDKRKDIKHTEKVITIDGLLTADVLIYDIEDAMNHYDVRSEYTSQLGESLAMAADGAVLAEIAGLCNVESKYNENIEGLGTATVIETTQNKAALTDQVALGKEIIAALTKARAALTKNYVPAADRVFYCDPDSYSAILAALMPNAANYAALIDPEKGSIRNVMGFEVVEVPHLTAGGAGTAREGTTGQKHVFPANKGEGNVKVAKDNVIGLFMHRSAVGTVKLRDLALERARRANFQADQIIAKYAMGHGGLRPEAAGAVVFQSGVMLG

Which results are given for “streptavidin coated QD (QD 605), Quantum Dot Corporation (from UniProt P22629 37-163)”?
percent of T7-bio phage with no QDs bound [1]: 7%; percent of the total peptides displayed that carry a QD [1]: 0.5%; fluorescence against the T7-myc control (orders of magnitude) [2]: 2; percent of phage-bound cells with fluorescence above the threshold (P2) [2]: 94%
